According to patent US20240309076A1:

Biological target: recombinant full-length human Tau (human) (UniProt P10636)
Assay: indirect ELISA, Tau coated on the plate

- EC50: 15 nM
B1: NI-502.4P3 (antibody, V domains shown)
VH: EVQLVQSGAEVKKPGESLKISCKVSGYDFSKYWIGWVRQMPGKGLEWMGLIYPGDSDTRYSPSLEGQVSISADKSISAAYLQFSSLKASDSAMYYCVRKGYSAYLGGWFDPWGQGTLVTVSS
VL: DIQLTQSPDSLAASLGERVTINCRSSQNIFYNSNNKNFLAWYQQKAGQSPKLLIYWASTRESGVPDRFSGSGSGTDFTLTISGLQAGDVAVYFCQQYFTDAPTFGGGTKVEIK
